Measured values published in the supplement of paper PMC9112550, “Optimization of the antimicrobial peptide Bac7 by deep mutational scanning” (BMC Biology, 2022).

System: Escherichia coli TOP10
Assay: shrunken log2 fold change of peptide-encoding DNA abundance (4.5 h post-induction vs induction); higher = less antimicrobial activity (less host growth inhibition)
Conditions: time post-induction: 4.5 h; library: site-saturation at positions 5, 18, 19, 20
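Also: peptides expressed intracellularly from a pBAD plasmid library in pooled LB shake-flask culture, induced with 0.3% L-arabinose, DNA abundance read by NGS, three biological replicates, DESeq2 with apeglm shrinkage.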

Sequence | shrunken log2 fold change
RRIRTRPPRLPRPRPRPASIPRP | -0.13
RRIRRRPPRLPRPRPRPEPNPRP | -0.00852
RRIRWRPPRLPRPRPRPGVNPRP | 0.0981
RRIRNRPPRLPRPRPRPFGPPRP | -0.406
RRIRCRPPRLPRPRPRPRVWPRP | 0.747
RRIRRRPPRLPRPRPRPHMRPRP | 0.29
RRIRYRPPRLPRPRPRPNTWPRP | -0.204
RRIRQRPPRLPRPRPRPSTCPRP | -0.0113
RRIRDRPPRLPRPRPRPKLQPRP | 0.08
RRIRCRPPRLPRPRPRPVQHPRP | -0.0893
RRIRHRPPRLPRPRPRPIGKPRP | 0.0218
RRIRFRPPRLPRPRPRPYYKPRP | -0.207
RRIRVRPPRLPRPRPRPVDPPRP | 0.22
RRIRQRPPRLPRPRPRPTSMPRP | -0.049
RRIRRRPPRLPRPRPRPPELPRP | -0.0467
RRIRIRPPRLPRPRPRPLCKPRP | -0.336
RRIRWRPPRLPRPRPRPHIYPRP | -0.358
RRIRFRPPRLPRPRPRPCPEPRP | -0.2
RRIRIRPPRLPRPRPRPEDSPRP | -0.0125
RRIRTRPPRLPRPRPRPWGVPRP | -0.0284
RRIRPRPPRLPRPRPRPSFGPRP | -0.156
RRIRKRPPRLPRPRPRPIIWPRP | 0.0809
RRIRLRPPRLPRPRPRPEPIPRP | 0.0321
RRIRKRPPRLPRPRPRPWRHPRP | 0.094
RRIRQRPPRLPRPRPRPSWEPRP | -0.141

Sequence | shrunken log2 fold change
RRIRTRPPRLPRPRPRPWCEPRP | 0.0211
RRIRCRPPRLPRPRPRPQAMPRP | 0.189
RRIRGRPPRLPRPRPRPAKFPRP | 0.549
RRIRGRPPRLPRPRPRPFIMPRP | -0.285
RRIRARPPRLPRPRPRPEDRPRP | 0.381
RRIRGRPPRLPRPRPRPHPAPRP | 0.853
RRIRPRPPRLPRPRPRPKFAPRP | 0.409
RRIRFRPPRLPRPRPRPNMLPRP | -0.669
RRIRPRPPRLPRPRPRPQDTPRP | -0.229
RRIRGRPPRLPRPRPRPKSTPRP | 1.41
RRIRERPPRLPRPRPRPIEVPRP | -0.00196
RRIRLRPPRLPRPRPRPRVMPRP | 0.0356
RRIRIRPPRLPRPRPRPEINPRP | -0.993
RRIRCRPPRLPRPRPRPYKGPRP | -0.153
RRIRIRPPRLPRPRPRPHYLPRP | -0.0913
RRIRERPPRLPRPRPRPNGCPRP | 0.00429
RRIRARPPRLPRPRPRPWHCPRP | -0.16
RRIRNRPPRLPRPRPRPTDGPRP | -0.113
RRIRERPPRLPRPRPRPGDNPRP | -0.0779
RRIRRRPPRLPRPRPRPQDGPRP | 0.106
RRIRNRPPRLPRPRPRPWRDPRP | -0.342
RRIRQRPPRLPRPRPRPYMGPRP | -0.00992
RRIRNRPPRLPRPRPRPEPPPRP | 0.758
RRIRIRPPRLPRPRPRPKVFPRP | 0.0502
RRIRERPPRLPRPRPRPRKRPRP | 0.255

Sequence | shrunken log2 fold change
RRIRWRPPRLPRPRPRPSYGPRP | -0.503
RRIRGRPPRLPRPRPRPFWYPRP | -0.0145
RRIRTRPPRLPRPRPRPRMQPRP | 0.0874
RRIRYRPPRLPRPRPRPTCYPRP | -0.582
RRIRMRPPRLPRPRPRPEMDPRP | 3.88
RRIRWRPPRLPRPRPRPTDLPRP | 0.0776
RRIRPRPPRLPRPRPRPVAKPRP | 0.236
RRIRLRPPRLPRPRPRPQSLPRP | -0.0995
RRIRERPPRLPRPRPRPPRTPRP | 0.316
RRIRKRPPRLPRPRPRPQVGPRP | 0.0646
RRIRYRPPRLPRPRPRPHPLPRP | -0.719
RRIRFRPPRLPRPRPRPKVLPRP | -0.128
RRIRTRPPRLPRPRPRPNVSPRP | -0.0389
RRIRPRPPRLPRPRPRPYHVPRP | -0.199
RRIRRRPPRLPRPRPRPAPMPRP | 0.957
RRIRCRPPRLPRPRPRPTWGPRP | 0.301
RRIRMRPPRLPRPRPRPGYWPRP | 0.0653
RRIRYRPPRLPRPRPRPHCKPRP | -0.11
RRIRGRPPRLPRPRPRPFMPPRP | -0.0647
RRIRTRPPRLPRPRPRPTAPPRP | 0.159
RRIRCRPPRLPRPRPRPDAYPRP | -0.177
RRIRERPPRLPRPRPRPPESPRP | 0.16
RRIRHRPPRLPRPRPRPPAGPRP | 0.344
RRIRPRPPRLPRPRPRPHEDPRP | -0.0757
RRIRMRPPRLPRPRPRPHIDPRP | 0.29

Sequence | shrunken log2 fold change
RRIRNRPPRLPRPRPRPVWWPRP | 0.259
RRIRTRPPRLPRPRPRPVMPPRP | 0.372
RRIRLRPPRLPRPRPRPDDYPRP | -0.247
RRIRNRPPRLPRPRPRPTGKPRP | -0.0851
RRIRHRPPRLPRPRPRPRDIPRP | 0.115
RRIRHRPPRLPRPRPRPDMPPRP | 0.144
RRIRYRPPRLPRPRPRPYMHPRP | 0.0498
RRIRSRPPRLPRPRPRPNLRPRP | 0.0182
RRIRIRPPRLPRPRPRPAYWPRP | -0.0439
RRIRVRPPRLPRPRPRPDEKPRP | 0.11
RRIRNRPPRLPRPRPRPEVSPRP | -0.0183
RRIRKRPPRLPRPRPRPSQDPRP | 0.107
RRIRLRPPRLPRPRPRPIHIPRP | -0.374
RRIRGRPPRLPRPRPRPKEQPRP | 0.0833
RRIRYRPPRLPRPRPRPTQEPRP | 0.0039
RRIRGRPPRLPRPRPRPFNGPRP | 0.0458
RRIRARPPRLPRPRPRPQCEPRP | 0.724
RRIRYRPPRLPRPRPRPRQSPRP | -0.0113
RRIRRRPPRLPRPRPRPGNVPRP | 0.418
RRIRERPPRLPRPRPRPMVYPRP | -0.119
RRIRRRPPRLPRPRPRPQPSPRP | 0.231
RRIRLRPPRLPRPRPRPASAPRP | 0.202
RRIRNRPPRLPRPRPRPSAIPRP | -0.354
RRIRRRPPRLPRPRPRPDQEPRP | 0.0223
RRIRTRPPRLPRPRPRPRQAPRP | 0.171

Sequence | shrunken log2 fold change
RRIRVRPPRLPRPRPRPFYSPRP | -0.3
RRIRNRPPRLPRPRPRPRMMPRP | 0.0809
RRIRGRPPRLPRPRPRPNDTPRP | 0.188
RRIRFRPPRLPRPRPRPCWDPRP | -0.0535
RRIRMRPPRLPRPRPRPERKPRP | 2.06
RRIRSRPPRLPRPRPRPRITPRP | -0.421
RRIRKRPPRLPRPRPRPACFPRP | -0.0348
RRIRVRPPRLPRPRPRPTFIPRP | -0.166
RRIRRRPPRLPRPRPRPYNKPRP | -0.664
RRIRSRPPRLPRPRPRPIGMPRP | -0.35
RRIRGRPPRLPRPRPRPRAAPRP | 1.53
RRIRPRPPRLPRPRPRPNSPPRP | -0.255
RRIRFRPPRLPRPRPRPLQQPRP | -0.0115
RRIRERPPRLPRPRPRPFYDPRP | -0.106
RRIRIRPPRLPRPRPRPRAYPRP | -0.315
RRIRKRPPRLPRPRPRPAYNPRP | 0.0771
RRIRWRPPRLPRPRPRPAVMPRP | 0.0971
RRIRPRPPRLPRPRPRPYNSPRP | -0.55
RRIRYRPPRLPRPRPRPSIFPRP | -0.654
RRIRRRPPRLPRPRPRPKTTPRP | 0.0923
RRIRDRPPRLPRPRPRPSGCPRP | 0.0451
RRIRDRPPRLPRPRPRPKKEPRP | 0.0609
RRIRKRPPRLPRPRPRPANEPRP | 0.151
RRIRARPPRLPRPRPRPKPSPRP | 0.524
RRIRLRPPRLPRPRPRPCNMPRP | 0.0385

Sequence | shrunken log2 fold change
RRIRIRPPRLPRPRPRPISAPRP | -0.0879
RRIRTRPPRLPRPRPRPQIAPRP | -0.0663
RRIRWRPPRLPRPRPRPTEIPRP | -0.22
RRIRFRPPRLPRPRPRPRIEPRP | -0.0896
RRIRARPPRLPRPRPRPYMWPRP | -0.927
RRIRPRPPRLPRPRPRPMHPPRP | 0.324
RRIRCRPPRLPRPRPRPKFFPRP | 0.0952
RRIRMRPPRLPRPRPRPARYPRP | 0.581
RRIRGRPPRLPRPRPRPYCKPRP | 0.0688
RRIRIRPPRLPRPRPRPTIIPRP | -0.848
RRIRCRPPRLPRPRPRPYMLPRP | -1.06
RRIRIRPPRLPRPRPRPNCPPRP | -0.231
RRIRMRPPRLPRPRPRPVGCPRP | 0.972
RRIRCRPPRLPRPRPRPGGTPRP | -0.0298
RRIRVRPPRLPRPRPRPAKYPRP | -0.575
RRIRDRPPRLPRPRPRPDYQPRP | 0.0708
RRIRCRPPRLPRPRPRPIEAPRP | -0.108
RRIRQRPPRLPRPRPRPNTPPRP | -0.0687
RRIRGRPPRLPRPRPRPNLYPRP | 0.0462
RRIRWRPPRLPRPRPRPMNAPRP | 0.327
RRIRRRPPRLPRPRPRPGITPRP | -0.0143
RRIRCRPPRLPRPRPRPIDRPRP | -0.0643
RRIRLRPPRLPRPRPRPYIGPRP | -0.129
RRIRSRPPRLPRPRPRPFPIPRP | 0.0325
RRIRDRPPRLPRPRPRPWFGPRP | 0.228
